Results on 1 molecule are retold here after article PMC2878131 (Science (New York, N.Y.), 2010).

In the assay the target is T1, preMADH α subunit (Paracoccus denitrificans, UniProt P29894 29-417).
T1 sequence (looked up): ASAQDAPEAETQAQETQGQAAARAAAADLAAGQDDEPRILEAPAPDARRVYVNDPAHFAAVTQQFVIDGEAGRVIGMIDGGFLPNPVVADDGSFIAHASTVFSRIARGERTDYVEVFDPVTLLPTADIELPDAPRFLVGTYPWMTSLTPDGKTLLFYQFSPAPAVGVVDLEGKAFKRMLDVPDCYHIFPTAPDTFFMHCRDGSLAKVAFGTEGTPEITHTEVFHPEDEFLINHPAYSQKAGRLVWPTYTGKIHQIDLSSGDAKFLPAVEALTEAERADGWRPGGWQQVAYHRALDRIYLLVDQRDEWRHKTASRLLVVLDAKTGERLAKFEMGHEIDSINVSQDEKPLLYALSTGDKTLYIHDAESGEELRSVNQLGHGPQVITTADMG
In words: crystal structure.

B1: preMADH β subunit (natural protein, Paracoccus denitrificans, UniProt P22619 58-188, looked up)
chain: ADAPAGTDPRAKWVPQDNDIQACDYWRHCSIDGNICDCSGGSLTNCPPGTKLATASWVASCYNPTDGQSYLIAYRDCCGYNVSGRCPCLNTEGELPVYRPEFANDIIWCFGAEDDAMTYHCTISPIVGKAS
modifications: βTrp57 monohydroxylated at the C7 carbon of the indole ring; no cross-link between βTrp57 and βTrp108
B1: the binding result was “binds”.
